Assay results taken from the supplement of paper PMC9112550, “Optimization of the antimicrobial peptide Bac7 by deep mutational scanning” (BMC Biology, 2022).

test system: Escherichia coli TOP10; assay: shrunken log2 fold change of peptide-encoding DNA abundance (4.5 h post-induction vs induction); higher = less antimicrobial activity (less host growth inhibition); conditions: time post-induction: 4.5 h; library: site-saturation at positions 5, 18, 19, 20
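Note: peptides expressed intracellularly from a pBAD plasmid library in pooled LB shake-flask culture, induced with 0.3% L-arabinose, DNA abundance read by NGS, three biological replicates, DESeq2 with apeglm shrinkage.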

Sequence	shrunken log2 fold change
RRIRFRPPRLPRPRPRPVACPRP	-0.347
RRIRFRPPRLPRPRPRPVCIPRP	-0.541
RRIRFRPPRLPRPRPRPVCQPRP	0.109
RRIRFRPPRLPRPRPRPVEKPRP	0.149
RRIRFRPPRLPRPRPRPVEMPRP	-0.327
RRIRFRPPRLPRPRPRPVEPPRP	-0.228
RRIRFRPPRLPRPRPRPVEVPRP	-1.6
RRIRFRPPRLPRPRPRPVEYPRP	-0.109
RRIRFRPPRLPRPRPRPVFLPRP	-0.327
RRIRFRPPRLPRPRPRPVGFPRP	-0.0508
RRIRFRPPRLPRPRPRPVGRPRP	0.382
RRIRFRPPRLPRPRPRPVHTPRP	-0.0075
RRIRFRPPRLPRPRPRPVLPPRP	-0.371
RRIRFRPPRLPRPRPRPVLYPRP	-0.457
RRIRFRPPRLPRPRPRPVNVPRP	-0.404
RRIRFRPPRLPRPRPRPVPLPRP	-0.118
RRIRFRPPRLPRPRPRPVRRPRP	0.122
RRIRFRPPRLPRPRPRPVRSPRP	0.234
RRIRFRPPRLPRPRPRPVSGPRP	-0.0636
RRIRFRPPRLPRPRPRPVTNPRP	-0.0718
RRIRFRPPRLPRPRPRPVVVPRP	-0.0228
RRIRFRPPRLPRPRPRPVWNPRP	-0.0763
RRIRFRPPRLPRPRPRPVWSPRP	0.175
RRIRFRPPRLPRPRPRPVYEPRP	-0.66
RRIRFRPPRLPRPRPRPVYFPRP	-0.399

Sequence	shrunken log2 fold change
RRIRFRPPRLPRPRPRPVYPPRP	-0.477
RRIRFRPPRLPRPRPRPWAAPRP	0.385
RRIRFRPPRLPRPRPRPWCFPRP	-0.282
RRIRFRPPRLPRPRPRPWCKPRP	-0.0278
RRIRFRPPRLPRPRPRPWDWPRP	0.149
RRIRFRPPRLPRPRPRPWEPPRP	-0.373
RRIRFRPPRLPRPRPRPWETPRP	0.0299
RRIRFRPPRLPRPRPRPWFTPRP	-0.574
RRIRFRPPRLPRPRPRPWHEPRP	-0.00448
RRIRFRPPRLPRPRPRPWHPPRP	-0.409
RRIRFRPPRLPRPRPRPWIDPRP	-0.0232
RRIRFRPPRLPRPRPRPWIYPRP	-0.662
RRIRFRPPRLPRPRPRPWNNPRP	-0.0242
RRIRFRPPRLPRPRPRPWPEPRP	0.0713
RRIRFRPPRLPRPRPRPWRKPRP	-0.0813
RRIRFRPPRLPRPRPRPWSMPRP	-0.548
RRIRFRPPRLPRPRPRPWSVPRP	-0.0111
RRIRFRPPRLPRPRPRPWVFPRP	-0.00336
RRIRFRPPRLPRPRPRPWVTPRP	-0.0635
RRIRFRPPRLPRPRPRPWWFPRP	-0.395
RRIRFRPPRLPRPRPRPWWYPRP	-0.238
RRIRFRPPRLPRPRPRPWYEPRP	-0.0991
RRIRFRPPRLPRPRPRPWYHPRP	-0.14
RRIRFRPPRLPRPRPRPYAIPRP	-0.536
RRIRFRPPRLPRPRPRPYCDPRP	-0.535

Sequence	shrunken log2 fold change
RRIRFRPPRLPRPRPRPYCGPRP	-0.306
RRIRFRPPRLPRPRPRPYDAPRP	-1.06
RRIRFRPPRLPRPRPRPYFPPRP	-0.599
RRIRFRPPRLPRPRPRPYHDPRP	-0.722
RRIRFRPPRLPRPRPRPYHIPRP	-0.081
RRIRFRPPRLPRPRPRPYHLPRP	-0.643
RRIRFRPPRLPRPRPRPYHVPRP	0.0272
RRIRFRPPRLPRPRPRPYIDPRP	-0.348
RRIRFRPPRLPRPRPRPYKEPRP	-0.0907
RRIRFRPPRLPRPRPRPYMGPRP	-0.225
RRIRFRPPRLPRPRPRPYMSPRP	-0.401
RRIRFRPPRLPRPRPRPYMYPRP	-0.635
RRIRFRPPRLPRPRPRPYPLPRP	-0.604
RRIRFRPPRLPRPRPRPYQHPRP	-0.898
RRIRFRPPRLPRPRPRPYREPRP	-0.468
RRIRFRPPRLPRPRPRPYSPPRP	-0.324
RRIRFRPPRLPRPRPRPYSQPRP	-0.411
RRIRFRPPRLPRPRPRPYSTPRP	0.0586
RRIRFRPPRLPRPRPRPYVEPRP	-0.315
RRIRFRPPRLPRPRPRPYWAPRP	-0.328
RRIRFRPPRLPRPRPRPYYKPRP	-0.207
RRIRFRPPRLPRPRPRPYYRPRP	0.0478
RRIRGRPPRLPRPRPRPAFCPRP	0.731
RRIRGRPPRLPRPRPRPAFPPRP	0.313
RRIRGRPPRLPRPRPRPAGFPRP	0.775

Sequence	shrunken log2 fold change
RRIRGRPPRLPRPRPRPAGKPRP	0.338
RRIRGRPPRLPRPRPRPAGPPRP	0.644
RRIRGRPPRLPRPRPRPAGVPRP	0.742
RRIRGRPPRLPRPRPRPAHDPRP	0.643
RRIRGRPPRLPRPRPRPAKFPRP	0.549
RRIRGRPPRLPRPRPRPAMWPRP	1.02
RRIRGRPPRLPRPRPRPANAPRP	0.694
RRIRGRPPRLPRPRPRPANKPRP	0.209
RRIRGRPPRLPRPRPRPANTPRP	0.152
RRIRGRPPRLPRPRPRPAPMPRP	1.1
RRIRGRPPRLPRPRPRPAPRPRP	1.85
RRIRGRPPRLPRPRPRPAQLPRP	0.435
RRIRGRPPRLPRPRPRPASLPRP	0.472
RRIRGRPPRLPRPRPRPATNPRP	0.766
RRIRGRPPRLPRPRPRPAVNPRP	0.402
RRIRGRPPRLPRPRPRPAYNPRP	-0.34
RRIRGRPPRLPRPRPRPCAIPRP	2.08
RRIRGRPPRLPRPRPRPCCFPRP	0.773
RRIRGRPPRLPRPRPRPCCQPRP	0.181
RRIRGRPPRLPRPRPRPCDIPRP	-0.00533
RRIRGRPPRLPRPRPRPCDRPRP	0.00287
RRIRGRPPRLPRPRPRPCEEPRP	0.742
RRIRGRPPRLPRPRPRPCEQPRP	0.48
RRIRGRPPRLPRPRPRPCFVPRP	0.319
RRIRGRPPRLPRPRPRPCGIPRP	0.206

Sequence	shrunken log2 fold change
RRIRGRPPRLPRPRPRPCGWPRP	1.34
RRIRGRPPRLPRPRPRPCHNPRP	0.033
RRIRGRPPRLPRPRPRPCIMPRP	0.177
RRIRGRPPRLPRPRPRPCLMPRP	0.0827
RRIRGRPPRLPRPRPRPCLYPRP	0.0217
RRIRGRPPRLPRPRPRPCMNPRP	0.104
RRIRGRPPRLPRPRPRPCMRPRP	0.767
RRIRGRPPRLPRPRPRPCMTPRP	2.89
RRIRGRPPRLPRPRPRPCQIPRP	-0.0259
RRIRGRPPRLPRPRPRPCQMPRP	0.215
RRIRGRPPRLPRPRPRPCSKPRP	0.09
RRIRGRPPRLPRPRPRPCSMPRP	-0.0323
RRIRGRPPRLPRPRPRPCSPPRP	0.0454
RRIRGRPPRLPRPRPRPDAAPRP	3.73
RRIRGRPPRLPRPRPRPDAIPRP	1.38
RRIRGRPPRLPRPRPRPDALPRP	0.889
RRIRGRPPRLPRPRPRPDAWPRP	1.17
RRIRGRPPRLPRPRPRPDCRPRP	0.68
RRIRGRPPRLPRPRPRPDDLPRP	0.0487
RRIRGRPPRLPRPRPRPDDSPRP	0.121
RRIRGRPPRLPRPRPRPDFMPRP	0.545
RRIRGRPPRLPRPRPRPDGLPRP	0.053
RRIRGRPPRLPRPRPRPDGTPRP	1.02
RRIRGRPPRLPRPRPRPDHTPRP	0.0269
RRIRGRPPRLPRPRPRPDLGPRP	0.688

Sequence	shrunken log2 fold change
RRIRGRPPRLPRPRPRPDLMPRP	0.878
RRIRGRPPRLPRPRPRPDMNPRP	1.35
RRIRGRPPRLPRPRPRPDMPPRP	0.168
RRIRGRPPRLPRPRPRPDMQPRP	0.37
RRIRGRPPRLPRPRPRPDNDPRP	0.0238
RRIRGRPPRLPRPRPRPDNLPRP	-0.226
RRIRGRPPRLPRPRPRPDPGPRP	0.616
RRIRGRPPRLPRPRPRPDQDPRP	1.06
RRIRGRPPRLPRPRPRPDRPPRP	0.376
RRIRGRPPRLPRPRPRPDRTPRP	-0.0561
RRIRGRPPRLPRPRPRPDSQPRP	0.223
RRIRGRPPRLPRPRPRPDVQPRP	1.69
RRIRGRPPRLPRPRPRPDVVPRP	0.424
RRIRGRPPRLPRPRPRPDWDPRP	0.596
RRIRGRPPRLPRPRPRPDYHPRP	-0.139
RRIRGRPPRLPRPRPRPDYMPRP	-0.0973
RRIRGRPPRLPRPRPRPDYPPRP	0.121
RRIRGRPPRLPRPRPRPEARPRP	1.54
RRIRGRPPRLPRPRPRPEAYPRP	0.0504
RRIRGRPPRLPRPRPRPECCPRP	1.52
RRIRGRPPRLPRPRPRPECSPRP	1.2
RRIRGRPPRLPRPRPRPECTPRP	2.08
RRIRGRPPRLPRPRPRPECVPRP	1.72
RRIRGRPPRLPRPRPRPEDHPRP	0.536
RRIRGRPPRLPRPRPRPEDIPRP	0.165
